T1: mouse GCC (guanylyl cyclase C, GUCY2C) on cells (mouse, UniProt Q3UWA6 20-1072)
T1 construct: whole, on cells; also called Dubca-mouse GCC.Luc
T1 sequence (looked up): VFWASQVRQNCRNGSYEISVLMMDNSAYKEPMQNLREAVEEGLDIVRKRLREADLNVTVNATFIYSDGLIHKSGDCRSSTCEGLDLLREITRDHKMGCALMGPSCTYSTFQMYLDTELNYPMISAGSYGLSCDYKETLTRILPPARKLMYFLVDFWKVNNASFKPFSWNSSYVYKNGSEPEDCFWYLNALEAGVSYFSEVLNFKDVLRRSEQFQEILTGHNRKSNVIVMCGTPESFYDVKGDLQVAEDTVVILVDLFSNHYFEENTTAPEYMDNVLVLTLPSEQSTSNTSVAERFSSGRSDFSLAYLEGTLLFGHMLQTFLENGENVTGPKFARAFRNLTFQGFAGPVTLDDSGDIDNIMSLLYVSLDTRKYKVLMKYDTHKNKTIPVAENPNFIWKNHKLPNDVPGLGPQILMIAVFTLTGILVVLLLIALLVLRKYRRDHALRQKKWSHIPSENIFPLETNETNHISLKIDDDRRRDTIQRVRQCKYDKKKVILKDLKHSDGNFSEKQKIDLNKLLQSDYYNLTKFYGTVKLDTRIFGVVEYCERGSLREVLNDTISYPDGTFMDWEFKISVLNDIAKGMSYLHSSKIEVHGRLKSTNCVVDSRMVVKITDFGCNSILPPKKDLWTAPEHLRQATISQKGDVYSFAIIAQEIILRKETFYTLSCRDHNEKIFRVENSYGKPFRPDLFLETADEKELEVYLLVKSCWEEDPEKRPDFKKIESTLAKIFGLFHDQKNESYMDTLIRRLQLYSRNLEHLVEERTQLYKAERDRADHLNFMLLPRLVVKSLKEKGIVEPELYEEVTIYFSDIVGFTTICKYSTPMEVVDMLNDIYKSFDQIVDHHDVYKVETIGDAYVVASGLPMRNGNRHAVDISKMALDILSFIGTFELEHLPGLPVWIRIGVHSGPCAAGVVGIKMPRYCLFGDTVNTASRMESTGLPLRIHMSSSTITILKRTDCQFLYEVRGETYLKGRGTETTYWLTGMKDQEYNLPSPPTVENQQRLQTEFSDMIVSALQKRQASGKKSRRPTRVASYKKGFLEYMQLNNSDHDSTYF

T2: His-tagged mouse GUCY2C/guanylyl cyclase C protein (ACRO GUC-M52H3) (mouse, UniProt Q3UWA6 20-433, limits assumed)
T2 construct: Bought protein; also called mouse GCC-his protein; mouse GCC-his; not shown: His tag
T2 sequence (looked up): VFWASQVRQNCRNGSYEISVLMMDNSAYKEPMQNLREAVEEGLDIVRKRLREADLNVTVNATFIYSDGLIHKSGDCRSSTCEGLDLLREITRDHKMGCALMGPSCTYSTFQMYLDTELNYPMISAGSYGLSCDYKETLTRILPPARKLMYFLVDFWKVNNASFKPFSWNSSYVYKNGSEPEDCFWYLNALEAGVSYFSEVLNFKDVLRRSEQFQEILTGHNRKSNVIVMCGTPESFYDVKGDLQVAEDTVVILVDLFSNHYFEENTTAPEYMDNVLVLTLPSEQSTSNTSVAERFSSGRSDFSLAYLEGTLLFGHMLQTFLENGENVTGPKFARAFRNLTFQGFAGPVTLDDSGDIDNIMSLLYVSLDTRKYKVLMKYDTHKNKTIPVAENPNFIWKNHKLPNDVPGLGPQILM

B1: 14C2 (anti-GCC rabbit monoclonal antibody, B cell clone supernatant) (antibody, V domains shown)
VH: QSLEESGGRLVTPGTPLTLTCTASGFSLSNYDMSWVRQAPGKGLEWIGTIEPDGSTWYASWAKGRLTISRTSTTVDLKMTSLTTEDTATYFCVRGAPDYSSNAFNLWGQGTLVTVSS
VL: DVVMTQTPSSVSEPVGGTVTIKCQASQSISSYLAWYQQKPGQPPKLLIYKASTLASGVSSQFRGSGSGTEFTLTISDLECADAATYYCQSTYAASNKLHFAFGGGTDVVVK
notes: Tested as native rabbit antibody in B cell clone supernatant; also called 14C2-B cells; clone 14C2
B2: 48D5 (anti-GCC rabbit monoclonal antibody, B cell clone supernatant) (antibody, V domains shown)
VH: QSLEESGGRLVKPDETLTITCTVSGIDLSSNAISWVRQAPGEGLEYIGYIGTGGKSFYATWTKGRFTISKTSTTVDLKMTSLTNEDTAMYFCATGNTYLDLWGQGTLVTVSS
VL: AQVLTQTPSSVSAAVGGTVTINCQSSQSVYGADYLAWYQQKPGQPPKLLIYRASNLASGVPSRFRGSGSGTQFTLTISEVQCDDAATYYCQGTYISSDWLNPFGGGTEVVVK
B3: 21E1 (anti-GCC rabbit monoclonal antibody, B cell clone supernatant) (antibody, V domains shown)
VH: QSLEESGGRLVTPGTPLTLTCTVSGIDLSSYDMTWVRQAPGKGLEWIGSIGDDGNTYYATWAKGRFTISKTSTTVHLKMTSLTTEDTATYFCARGWSFCKSWGQGTLVTVSS
VL: AQVLTQTASPVSAAVGGTVTISCQSSQSVANNNLAWYQQKPGQPPSPLIYKASTLESGVPSRFSGSGSGTQFALTISGVQCDDAATYYCQGAYRSGIMAFGGGTEVVVR
B4: 22G5 (anti-GCC rabbit monoclonal antibody, B cell clone supernatant) (antibody, V domains shown)
VH: QSVEESGGRLVTPGTPLTLTCTVSGIDLSSYAMTWVRQAPGEGLEWIGTINTISTAYYANWAKGRFTISKTSTTVDLKIASPTTEDTATYFCARDHGYYDVWGQGTLVTVSS
VL: AQVLTQTPSSVSAAVGGTVTINCQASQSVYKNNYLSWYQQKPGQPPRLLIYDASTLASGVPSRFKGSGSGTQFTLTISGVQCDDAATYYCLGEFSCSSGDCAAFGGGTEVVVK
B5: 25E2 (anti-GCC rabbit monoclonal antibody, B cell clone supernatant) (antibody, V domains shown)
VH: QSVEESGGRLVTPGTPLTLTCTVSGIDLNKHAMGWVRQAPTKGLEWIGTIYVSTNTAYASWAKGRFTISKTSSTTVDLKMTSLTTEDTATYFCARGGGSSYYTGELYFNLWGQGTLVTVSS
VL: AYDMTQTPASVEVAVGGTVSIKCQVSQSIGSWLAWYQQKPGQPPKLLIYSASTLASGVSSRFKGSGSGTEFTLTISDLACVDAATYYCQSYSSASTTAFGGGTEVVVR
B6: 22G5-Rabbit IgG (antibody, V domains shown)
VH: B4 VH
VL: AQVLTQTPSSVSAAVGGTVTINCQASQSVYKNNYLSWYQQKPGQPPRLLIYDASTLASGVPSRFKGSGSGTQFTLTISGVQCDDAATYYCLGEFSCSSGDCAAFGGGTEVVVKG
notes: Recombinant rabbit IgG (IgG1k) expressed in HD CHO-S cells: 22G5 VH-Rabbit IgG CH1-CH2-CH3 and 22G5 VL-Rabbit IgG CL; also called 22G5-Rabbit IgG antibody; 22G5 antibody
B7: PF0098-Rabbit IgG (antibody, V domains shown)
VH: QVQLQQPGAELVKPGASVKLSCKASGYTFTSYWMHWVKQRPGQGLEWIGEIKPSNGLTNYIEKFKNKATLTVDKSATTAYMQLSSLTAEDSAVYYCTRTITTTEGYWFFDVWGAGTTVTVSS
VL: DIVLTQSPASLAVSLGQRATISCRASESVDYYGTSLMQWYQQKPGQPPKLLIYAASNVESGVPARFSGSGSGTDFSLNIHPVEEDDIAMYFCQQTRKVYTFGGGTKLEIKG
notes: also called PF0098-Rabbit IgG antibody

Key:
[1] = biological target: mouse GCC (guanylyl cyclase C, GUCY2C) on cells (mouse) (UniProt Q3UWA6); test: flow cytometry, B cell clone supernatant on Dubca-mouse GCC.Luc cells
[2] = biological target: T3, human GCC (guanylyl cyclase C, GUCY2C) on cells (human, UniProt P25092 24-1073); test: flow cytometry, B cell clone supernatant on Dubca-human GCC.Luc cells
T3 construct: whole, on cells; also called Dubca-human GCC.Luc

[3] = biological target: human GCC (guanylyl cyclase C, GUCY2C) on cells (human) (UniProt P25092); test: as above
[4] = biological target: T3, human GCC (guanylyl cyclase C, GUCY2C) …; test: flow cytometry on 293T-human GCC.Luc cells
[5] = biological target: T1, mouse GCC (guanylyl cyclase C, GUCY2C) …; test: flow cytometry on 293T-mouse GCC.Luc cells
[6] = biological target: T4, His-tagged human GUCY2C/Guanylyl cyclase C protein (ACRO GUC-H52H5) (human, UniProt P25092 24-430); test: ELISA, plate coated with human GCC-his protein at 1 µg/mL
T4 construct: Bought protein; also called human GCC-his protein; human GCC-his; not shown: His tag

[7] = biological target: T2, His-tagged mouse GUCY2C/guanylyl …; test: ELISA, plate coated with mouse GCC-his protein at 1 µg/mL

human GCC (guanylyl cyclase C, GUCY2C) on cells (human), sequence (P25092 24-1073): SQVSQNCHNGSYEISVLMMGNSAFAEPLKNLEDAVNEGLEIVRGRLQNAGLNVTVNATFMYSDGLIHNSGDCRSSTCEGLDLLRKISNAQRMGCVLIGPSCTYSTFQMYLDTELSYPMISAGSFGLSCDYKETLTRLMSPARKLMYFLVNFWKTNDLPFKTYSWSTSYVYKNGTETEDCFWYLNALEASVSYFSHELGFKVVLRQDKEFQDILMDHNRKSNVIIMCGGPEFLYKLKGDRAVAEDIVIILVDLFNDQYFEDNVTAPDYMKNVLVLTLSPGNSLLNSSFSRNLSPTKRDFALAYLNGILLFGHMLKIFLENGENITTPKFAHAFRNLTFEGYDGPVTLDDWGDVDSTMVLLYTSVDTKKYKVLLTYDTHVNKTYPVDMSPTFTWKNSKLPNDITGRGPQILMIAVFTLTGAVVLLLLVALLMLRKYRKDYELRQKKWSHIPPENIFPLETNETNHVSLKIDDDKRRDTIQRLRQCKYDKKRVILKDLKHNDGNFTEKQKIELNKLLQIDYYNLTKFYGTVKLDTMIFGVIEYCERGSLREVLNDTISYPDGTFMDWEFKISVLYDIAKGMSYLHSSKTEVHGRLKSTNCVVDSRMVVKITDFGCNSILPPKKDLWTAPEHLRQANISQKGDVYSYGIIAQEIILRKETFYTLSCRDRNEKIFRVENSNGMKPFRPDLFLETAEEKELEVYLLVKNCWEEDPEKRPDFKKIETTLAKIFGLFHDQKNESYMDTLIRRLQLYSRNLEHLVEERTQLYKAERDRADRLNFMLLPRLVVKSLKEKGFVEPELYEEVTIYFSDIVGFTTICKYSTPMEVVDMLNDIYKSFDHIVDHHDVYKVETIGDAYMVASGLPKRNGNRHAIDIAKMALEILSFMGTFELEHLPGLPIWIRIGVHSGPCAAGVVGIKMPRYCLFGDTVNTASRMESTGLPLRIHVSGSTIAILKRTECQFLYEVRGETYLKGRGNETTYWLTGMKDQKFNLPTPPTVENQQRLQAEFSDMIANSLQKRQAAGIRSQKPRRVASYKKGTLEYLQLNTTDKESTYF
T3 sequence (P25092 24-1073): as above
T4 sequence (P25092 24-430 limits assumed): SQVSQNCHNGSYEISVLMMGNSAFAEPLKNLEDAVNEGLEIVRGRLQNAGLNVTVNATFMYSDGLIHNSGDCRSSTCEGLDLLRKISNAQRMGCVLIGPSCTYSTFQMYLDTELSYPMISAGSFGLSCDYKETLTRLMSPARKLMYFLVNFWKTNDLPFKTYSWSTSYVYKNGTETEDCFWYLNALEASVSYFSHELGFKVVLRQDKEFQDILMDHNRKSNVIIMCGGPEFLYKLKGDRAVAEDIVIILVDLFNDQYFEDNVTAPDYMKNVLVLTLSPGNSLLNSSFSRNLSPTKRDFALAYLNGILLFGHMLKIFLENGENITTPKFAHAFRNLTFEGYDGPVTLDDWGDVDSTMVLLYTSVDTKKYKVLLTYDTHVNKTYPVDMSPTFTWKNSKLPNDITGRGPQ

Row | Binder | percent of cells bound (flow cytometry) [1] [%] | binding result [2] | percent of cells bound (flow cytometry) [3] [%] | EC50 [4] [nM] | EC50 [5] [nM] | EC50 [6] [nM] | EC50 [7] [nM]
1 | B1 | 99.2 | no binding |  |  |  |  | 
2 | B2 | 81.8 |  | 65.9 |  |  |  | 
3 | B3 | 99.7 |  | 95.4 |  |  |  | 
4 | B4 | 74.1 |  | 99.9 |  |  |  | 
5 | B5 | 95.4 |  | 95.1 |  |  |  | 
6 | B6 |  |  |  | 0.102 | 1.23 | 0.619 | 0.824
7 | B7 |  |  |  | 0.0254 | 0.284 | 0.671 | 0.899

From patent publication EP4782464A1 (Nanjing Legend Biotech Co., Ltd., dated 2026)
